The text below walks through data of paper PMC2064523 (The Journal of Cell Biology, 2006).

In test [1] the target is Vh1 domain of human vinculin (residues 1–258) (human) (UniProt P18206). In words: SPR.
The target is the same in test [2]. In words: native gel or EMSA.
In test [3] the target is Human full-length vinculin (residues 1–1,066) (human) (UniProt P18206). In words: SPR.
Test [4] addresses T1, Vh1 domain of human vinculin (residues 1–258) (human, UniProt P18206 1-258).
T1 sequence (looked up): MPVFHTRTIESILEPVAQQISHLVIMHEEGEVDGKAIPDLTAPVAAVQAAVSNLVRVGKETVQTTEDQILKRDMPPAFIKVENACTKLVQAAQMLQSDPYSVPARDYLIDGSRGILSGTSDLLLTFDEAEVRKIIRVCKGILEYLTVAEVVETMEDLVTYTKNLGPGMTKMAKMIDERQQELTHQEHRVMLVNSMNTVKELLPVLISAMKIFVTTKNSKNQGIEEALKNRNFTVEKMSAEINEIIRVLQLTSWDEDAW
Nature of the test: SPR.

The target of test [5] is T1, Vh1 domain of human vinculin (residues …). In words: native gel or EMSA.
Test [6] has the same target. Nature of the test: crystal structure.

In test [1], IpaA-VBS2-Y567I peptide yielded a dissociation constant Kd of 15000 pM.

In the case of “IpaA-Cterm (C-terminal domain of IpaA, residues 559–633) (from UniProt P18010 559-633) (domain or fragment)”, in test [2], the stoichiometry N turned out to be 1. The Kd stood at 35.2 pM in test [3] and 0.0062 pM in test [1].

B1: IpaA-VBS peptide (IpaA residues 611–633) (peptide, UniProt P18010 611-633, looked up)
peptide: NIYKAAKDVTTSLSKVLKNINKD
In the case of B1, in test [4], binding was characterised by a dissociation constant (Kd) of 110 pM.

B2: IpaA-VBS-Y613I peptide (peptide)
peptide: NIIKAAKDVTTSLSKVLKNINKD
B2: the affinity in test [4], expressed as Kd, was 270 pM.

B3: IpaA-VBS2 peptide (IpaA residues 565–587) (peptide, UniProt P18010 565-587, looked up)
peptide: AIYEKAKEVSSALSKVLSKIDDT
B3: the Kd in test [4] was determined as 6610 pM.

B4: IpaA-VBS2-K569A peptide (peptide)
peptide: AIYEAAKEVSSALSKVLSKIDDT
For the molecule B4, the Kd in test [4] worked out at 530 pM.

B5: Vt domain of human vinculin (residues 879–1,066) (domain or fragment, UniProt P18206-2 879-1066, looked up)
chain: EEKDEEFPEQKAGEVINQPMMMAARQLHDEARKWSSKGNDIIAAAKRMALLMAEMSRLVRGGSGTKRALIQCAKDIAKASDEVTRLAKEVAKQCTDKRIRTNLLQVCERIPTISTQLKILSTVKATMLGRTNISDEESEQATEMLVHNAQNLMQSVKETVREAEAASIKIRTDAGFTLRWVRKTPWYQ
Take B5: in test [5], the binding result is reported as “binds”.

B6: IpaA residues 602–633 (containing the IpaA-VBS), peptide of the crystal structure (peptide, UniProt P18010 602-633, looked up)
peptide: NNDITAENNNIYKAAKDVTTSLSKVLKNINKD
For B6, the binding result in test [6] is reported as “binds”.
